Assay [1] concerns the target T1, VEGFR2-His (residues 1-764 of VEGFR2, Ig-like domains 1-7, with hexahistidine tag) (human, UniProt P35968 20-764).
T1 construct: range 1-764; Monomeric form, expressed in FreeStyle 293-F cells; also called VEGFR-His
The assay is described as follows: yeast surface display titration, flow cytometry. The method, then: (§1) Cells were incubated in large enough volumes to avoid ligand depletion and appropriate time to reach equilibrium. During the last hour of incubation, yeast were incubated with 1:250 dilution of chicken anti-c-Myc (Invitrogen) in PBSA. […] Yeast were washed, pelleted, and resuspended in PBSA immediately before analysis by flow cytometry using BD FACSCalibur or BD Accuri C6. Flow cytometry data were analyzed using FlowJo (v7.6.1 and v10, Treestar) or BD Accuri C6 software. Statistical analysis was performed using GraphPad Prism 6.
In general terms: Flow cytometry measures light scatter and fluorescence of single cells or particles in a stream.

For assay [2], the target named is T2, soluble VEGFR2 (Fc or His format not stated for the experiment) (human, UniProt P35968 20-764).
T2 construct: extracellular domain
T2 sequence (P35968 20-764): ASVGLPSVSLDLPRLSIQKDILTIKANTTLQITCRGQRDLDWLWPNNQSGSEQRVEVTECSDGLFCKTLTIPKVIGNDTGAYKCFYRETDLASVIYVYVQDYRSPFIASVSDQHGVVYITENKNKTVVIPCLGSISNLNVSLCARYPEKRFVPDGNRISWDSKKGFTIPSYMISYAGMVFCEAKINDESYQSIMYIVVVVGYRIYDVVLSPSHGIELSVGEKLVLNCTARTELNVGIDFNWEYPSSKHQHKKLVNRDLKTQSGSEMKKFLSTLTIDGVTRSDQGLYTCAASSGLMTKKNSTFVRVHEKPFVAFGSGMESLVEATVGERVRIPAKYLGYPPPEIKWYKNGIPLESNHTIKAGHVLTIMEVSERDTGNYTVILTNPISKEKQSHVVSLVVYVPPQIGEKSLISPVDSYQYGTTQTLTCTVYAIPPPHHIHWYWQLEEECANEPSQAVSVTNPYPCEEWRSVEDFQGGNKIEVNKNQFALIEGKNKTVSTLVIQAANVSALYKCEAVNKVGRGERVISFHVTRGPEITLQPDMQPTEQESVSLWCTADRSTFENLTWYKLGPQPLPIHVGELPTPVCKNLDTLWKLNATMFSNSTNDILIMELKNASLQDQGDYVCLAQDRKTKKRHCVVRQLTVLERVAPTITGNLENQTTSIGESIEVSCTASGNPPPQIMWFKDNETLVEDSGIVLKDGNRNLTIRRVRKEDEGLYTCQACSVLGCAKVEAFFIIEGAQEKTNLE
The assay is described as follows: yeast surface display titration; table under the panel 'VEGFR binding', Fc or His form not given.

Another assay addresses T3, VEGFR2-Fc (R&D Systems) (human, UniProt P35968 20-764).
T3 construct: extracellular domain; Bought reagent; also called VEGFR-Fc; not shown: Fc part, detected with anti-human-IgG (Fc specific)
The assay is described as follows: yeast surface display, flow cytometry titration of VEGFR2-Fc. As for the experimental part: as §1

Assay [3] concerns the target T4, human VEGFR on human umbilical vein endothelial cells (HUVECs) (human, UniProt P35968 20-1356).
T4 construct: The phosphorylation blots on these cells detect VEGFR2
The assay is described as follows: flow cytometry titration of the soluble FLAG-tagged protein on HUVECs, anti-FLAG detection. The method, then:
(§2) To test binding to VEGFR, human umbilical vein endothelial cells (HUVECs) and murine angiosarcoma endothelial cells (SVR) were used.
(§3) Cell-binding assay. Varying concentrations of scPDGF, scVEGF, and PDGF/VEGF ligands were incubated with 25,000 PDGFR- or VEGFR-expressing cells in binding buffer (20 mM Tris pH 7.5 with 1 mM MgCl₂, 1 mM MnCl₂, 2 mM CaCl₂, 100 mM NaCl, and 1 mg/ml BSA) for 5 hr (BJ-5ta, NIH/3T3) or 3 hr (HUVEC, SVR) at 4° C. Cells were washed and pelleted, then incubated with 1:100 R-PE-conjugated anti-FLAG antibody (Prozyme) for 15 min on ice. Cells were washed, pelleted, and resuspended in binding buffer immediately before analysis by flow cytometry using BD Accuri C6. Flow cytometry data were analyzed using BD Accuri C6 software, and statistical analysis was performed using GraphPad Prism 6.

Assay [4] deals with T1, VEGFR2-His (residues 1-764 of VEGFR2, …). The assay is described as follows: KinExA, calculated from Kd and kon. As for the experimental part:
(§4) By performing two experiments with fixed ligand concentrations above and below the Kd, and fitting both sets of data with a nonlinear regression analysis, a more accurate measurement for the affinity can be obtained.
(§5) Additionally, the kinetic parameter kₒₙ can be determined by using a “kinetics injection” experiment. A constant concentration of PDGF/VEGF ligand is injected with an equal volume of differing concentrations of PDGRβ-His or VEGFR2-His. The two solutions are allowed to mix briefly (several seconds) in the time required for the instrument to deliver the mixture to the detection bead column. The pre-equilibrium concentrations of free ligand is fit to the standard bimolecular rate equation to obtain kₒₙ.
(§6) Kinetic Exclusion Assay (KinExA). All experiments were performed on a KinExA 3200 instrument with siliconized flow cell (Sapidyne Instruments Inc). […] 30 μg of receptor was incubated in 1 ml of 50 mM sodium bicarbonate, 0.5 M sodium citrate buffer, pH 8.3, for 2 hr at room temperature with rocking. Beads were allowed to settle by gravity and liquid removed. Beads were blocked by incubating in 1 ml of 10 mg/ml BSA in 1 M Tris buffer, pH 8.0, for 1 hr at room temperature with rocking, and stored in blocking buffer at 4° C. for up to one week until use. Running buffer contained PBS with 10 mM imidazole and 0.02% sodium azide. Samples were prepared in running buffer with 1 mg/ml BSA. Binding reactions were prepared with a fixed concentration of PDGF/VEGF ligands and dilution series of PDGFR or VEGFR. Captured PDGF/VEGF ligands were detected using a Dylight 649-conjugated anti-FLAG antibody (Rockland) at 1:1000 dilution in sample buffer. Kinetic experiments were performed with the “Kinetics Injection” method defined in the KinExA software. Data were analyzed with KinExA Pro Software. The Kd was determined from a global fit of two concentration curves using the “n-curve analysis” tool and the titrant concentrations as reference. […] The kₒₙ was calculated as a fit of the pre-equilibrium free ligand concentrations to the bimolecular binding equation using the “Kinetics Injection” tool.

Assay [5] concerns the target T5, PDGFRβ-His (residues 1-314 of PDGFR-β with C-terminal hexahistidine tag) (human, UniProt P09619 33-314).
T5 construct: range 1-314; Monovalent form, expressed in FreeStyle 293-F cells; also called PDGRβ-His; PDGFR-His
The assay is described as follows: KinExA, calculated from Kd and kon. As for the experimental part: as §4, §5, §6

For assay [6], the target named is T1, VEGFR2-His (residues 1-764 of VEGFR2, …). The assay can be described thus: KinExA Kinetics Injection. As for the experimental part:
as §5, §6

For assay [7], the target named is T5, PDGFRβ-His (residues 1-314 of PDGFR-β …). The assay is described as follows: KinExA Kinetics Injection. The method, then:
as §5, §6

Assay [8] concerns the target T4, human VEGFR on human umbilical vein …. The assay is described as follows: flow cytometry on HUVECs, soluble ligand titrated 3 h at 4 C, anti-FLAG-PE. As for the experimental part:
as §2, §3

Assay [9] concerns the target T1, VEGFR2-His (residues 1-764 of VEGFR2, …). The assay is described as follows: KinExA, equilibrium titration in solution, n-curve analysis. As for the experimental part: (§7) For KinExA measurements, a constant amount of PDGF/VEGF ligand is titrated with differing concentrations of PDGRβ-His or VEGFR2-His. The solutions are incubated for an appropriate amount of time to allow the ligand-receptor binding reaction to reach equilibrium. The solution is then briefly exposed to a solid support containing immobilized PDGFR or VEGFR, which captures unbound ligand. The amount of ligand bound to the solid support is then detected using a fluorescently-labeled antibody. […] For each binding interaction measured, curves for two concentrations of the constant ligand are performed. By performing two experiments with fixed ligand concentrations above and below the Kd, and fitting both sets of data with a nonlinear regression analysis, a more accurate measurement for the affinity can be obtained.
(§8) Kinetic Exclusion Assay (KinExA). All experiments were performed on a KinExA 3200 instrument with siliconized flow cell (Sapidyne Instruments Inc). […] 30 μg of receptor was incubated in 1 ml of 50 mM sodium bicarbonate, 0.5 M sodium citrate buffer, pH 8.3, for 2 hr at room temperature with rocking. Beads were allowed to settle by gravity and liquid removed. Beads were blocked by incubating in 1 ml of 10 mg/ml BSA in 1 M Tris buffer, pH 8.0, for 1 hr at room temperature with rocking, and stored in blocking buffer at 4° C. for up to one week until use. Running buffer contained PBS with 10 mM imidazole and 0.02% sodium azide. Samples were prepared in running buffer with 1 mg/ml BSA. Binding reactions were prepared with a fixed concentration of PDGF/VEGF ligands and dilution series of PDGFR or VEGFR. Captured PDGF/VEGF ligands were detected using a Dylight 649-conjugated anti-FLAG antibody (Rockland) at 1:1000 dilution in sample buffer. Kinetic experiments were performed with the “Kinetics Injection” method defined in the KinExA software. Data were analyzed with KinExA Pro Software.
(In general: Kinetic exclusion samples the free partner from a solution-phase mixture.)

Assay [10] addresses T5, PDGFRβ-His (residues 1-314 of PDGFR-β …). The description is as above. As for the experimental part:
as §7, §8

Assay [11] addresses T2, soluble VEGFR2 (Fc or His format not …). The assay is described as follows: yeast surface display, flow cytometry dot plot: soluble receptor bound (FL1) against surface expression (FL2); receptor concentration not given.
Assay [12] addresses T5, PDGFRβ-His (residues 1-314 of PDGFR-β …). The assay can be described thus: yeast surface display, flow cytometry equilibrium titration of PDGFRβ-His (panel 'PDGFR-His'), normalized fluorescence. The method, then:
as §1

The target of assay [13] is T1, VEGFR2-His (residues 1-764 of VEGFR2, …). The assay is described as follows: yeast surface display, flow cytometry equilibrium titration of VEGFR2-His, normalized fluorescence. The method, then: as §1
For assay [14] the target is unchanged. The assay can be described thus: yeast surface display titration, flow cytometry. As for the experimental part: as §1
The source holds these as a separate data set.

Assay [15] has as its target T5, PDGFRβ-His (residues 1-314 of PDGFR-β …). The assay can be described thus: yeast surface display titration, flow cytometry. As for the experimental part:
as §1

The values that follow come from patent US20180111972A1 (Stanford University, published 2018).

T1 sequence (P35968 other isoform, or with tags, fused parts or gaps limits assumed, form in doubt): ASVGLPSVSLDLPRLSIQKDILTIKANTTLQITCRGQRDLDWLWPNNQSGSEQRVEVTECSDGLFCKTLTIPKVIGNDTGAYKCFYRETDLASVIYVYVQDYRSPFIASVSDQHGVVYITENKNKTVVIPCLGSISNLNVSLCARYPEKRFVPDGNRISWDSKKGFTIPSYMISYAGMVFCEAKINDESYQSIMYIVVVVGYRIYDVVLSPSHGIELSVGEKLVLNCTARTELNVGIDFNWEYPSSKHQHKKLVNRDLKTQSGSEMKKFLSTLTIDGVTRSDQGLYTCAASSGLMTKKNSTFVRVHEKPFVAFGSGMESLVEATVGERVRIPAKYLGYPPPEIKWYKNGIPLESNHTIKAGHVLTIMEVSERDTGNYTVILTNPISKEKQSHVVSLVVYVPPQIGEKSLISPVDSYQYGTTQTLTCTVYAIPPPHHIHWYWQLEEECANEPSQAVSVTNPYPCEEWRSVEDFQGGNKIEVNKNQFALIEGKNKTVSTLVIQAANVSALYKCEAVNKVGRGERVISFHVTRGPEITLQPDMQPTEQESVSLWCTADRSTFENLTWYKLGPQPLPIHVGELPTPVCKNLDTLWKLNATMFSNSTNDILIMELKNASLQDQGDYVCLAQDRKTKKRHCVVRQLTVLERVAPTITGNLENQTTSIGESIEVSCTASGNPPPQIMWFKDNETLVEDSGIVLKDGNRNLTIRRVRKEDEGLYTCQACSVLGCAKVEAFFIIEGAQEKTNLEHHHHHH
T4 sequence (P35968 20-1356 limits assumed): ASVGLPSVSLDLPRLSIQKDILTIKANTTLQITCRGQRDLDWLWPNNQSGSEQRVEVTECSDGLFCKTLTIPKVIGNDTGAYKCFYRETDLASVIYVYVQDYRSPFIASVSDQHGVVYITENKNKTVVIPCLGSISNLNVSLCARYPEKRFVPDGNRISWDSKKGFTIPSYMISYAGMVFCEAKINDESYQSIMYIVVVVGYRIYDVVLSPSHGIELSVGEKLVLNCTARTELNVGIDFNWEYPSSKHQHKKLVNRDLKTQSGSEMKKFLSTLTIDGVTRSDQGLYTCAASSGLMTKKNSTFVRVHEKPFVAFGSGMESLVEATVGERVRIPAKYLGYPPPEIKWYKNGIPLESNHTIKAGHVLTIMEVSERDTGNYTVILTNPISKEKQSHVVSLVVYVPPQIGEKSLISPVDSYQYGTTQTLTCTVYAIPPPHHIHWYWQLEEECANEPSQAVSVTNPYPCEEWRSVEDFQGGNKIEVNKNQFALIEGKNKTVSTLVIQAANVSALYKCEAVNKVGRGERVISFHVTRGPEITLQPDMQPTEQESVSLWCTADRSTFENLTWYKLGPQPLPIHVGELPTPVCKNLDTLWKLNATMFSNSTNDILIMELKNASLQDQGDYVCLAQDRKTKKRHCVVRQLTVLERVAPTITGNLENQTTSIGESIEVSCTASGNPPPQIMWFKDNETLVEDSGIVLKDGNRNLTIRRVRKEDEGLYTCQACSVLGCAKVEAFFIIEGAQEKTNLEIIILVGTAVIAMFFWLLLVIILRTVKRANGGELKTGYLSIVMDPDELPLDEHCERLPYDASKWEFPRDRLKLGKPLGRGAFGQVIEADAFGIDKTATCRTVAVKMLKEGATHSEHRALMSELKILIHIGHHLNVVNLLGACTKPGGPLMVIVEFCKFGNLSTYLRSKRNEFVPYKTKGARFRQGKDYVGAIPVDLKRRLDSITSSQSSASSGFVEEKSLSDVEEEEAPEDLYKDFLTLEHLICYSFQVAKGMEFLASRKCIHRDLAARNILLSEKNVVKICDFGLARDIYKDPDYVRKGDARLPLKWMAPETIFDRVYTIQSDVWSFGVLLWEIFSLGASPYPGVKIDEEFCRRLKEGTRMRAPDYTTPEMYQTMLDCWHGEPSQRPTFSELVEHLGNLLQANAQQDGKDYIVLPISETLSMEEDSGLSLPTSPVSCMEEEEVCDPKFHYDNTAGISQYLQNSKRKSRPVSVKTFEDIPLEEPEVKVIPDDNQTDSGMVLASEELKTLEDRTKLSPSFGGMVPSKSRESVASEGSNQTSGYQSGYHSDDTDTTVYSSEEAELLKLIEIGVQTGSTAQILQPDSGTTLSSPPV
T3 sequence (P35968 20-764): as the sequence (P35968 20-764) above

B1: V4-22 (PV6 with F20L, E28G, Q71R, D160H), yeast-displayed (designed binder)
chain: IAEPAMIAECHPIETLVDILQEYPDEIGYIFKPSCVPLMRCGGCCNNRNVQCRPTEESNITMQIMRIKPHRGQHIGEMSFLQHNKCKCETVAAGSTSGSGKSSEGKGEVVKFMDVYQRSYCKTRTEVFEISRRLIDRTNANFLVWPPCVEVQRCSGCCNHEGLECVPTQVQLRPVQVRKIEIVRKKPIFKKATVTLEDHLACECRPKKD
notes: Variant from the Vshuf library
As to B1, the Kd (as a rule, the constant that tells how readily two partners part at equilibrium) in assay [1] was found to be 1.3 nM; in [2], 1.9 nM.

B2: V5-5, yeast-displayed variant from the Vshuf library (designed binder)
chain: IAEPAVIAECHPIETLVDILQEYPDEIGYIFKPSCVPLMRCGGCCNNRNVQCRPTEESNITMQIMRIKPHRGQHIGEMSFLQHNKCKCETVAAGSTSGSGKSSEGKGEVVKFMDVYQRSYCKTRTEVFEISRRLIDRTNANFLVWPPCVEVQRCSGCCNHEGLECVPTQVQLRPVQVRKIEIVRKKPIFKKATVTLEDHLACECRPKKV
Consider B2, for which, in the assay with VEGFR2-Fc (R&D Systems), the binding result is recorded as “binds”.

B3: PV6 PDGF/VEGF chimera, soluble, N-terminal FLAG and C-terminal hexahistidine tags (designed binder)
chain: DYKDDDDKIAEPAMIAECHPIETLVDIFQEYPDEIEYIFKPSCVPLMRCGGCCNNRNVQCRPTEESNITMQIMRIKPHQGQHIGEMSFLQHNKCKCETVAAGSTSGSGKSSEGKGEVVKFMDVYQRSYCKTRTEVFEISRRLIDRTNANFLVWPPCVEVQRCSGCCNDEGLECVPTQVQLRPVQVRKIEIVRKKPIFKKATVTLEDHLACKCRPKKDHHHHHH
notes: Secreted from S. cerevisiae YVH10 and treated with Endo Hf; also called soluble PV6
For B3, the concentration for a half-maximal effect (EC50 (read off the curve)) (as a rule, the concentration that produces a half-maximal response) in assay [3] is approximately 10 nM. Moreover, the koff (commonly a measure of how fast the partners let go of each other) is 0.0092 s⁻¹ in assay [4] and 0.019 s⁻¹ in assay [5]. Further, the kon (usually the rate constant with which the complex forms) in assay [6] was determined as 240000 M⁻¹ s⁻¹; in assay [7] it was 2.2e+07 M⁻¹ s⁻¹. Besides, the Kd was 11 nM in assay [8], 38 nM in [9] and 0.87 nM in assay [10].

B4: PV1 PDGF/VEGF hybrid construct, yeast-displayed (designed binder)
chain: IAEPAMIAECKTRETLVDIFQEYPDEIEYIFKPSCVPLMRCSGCCNNRNVQCRPTEESNITMQIMRIKPHQGQHIGEMSFLQHLACKCETVAAGSTSGSGKSSEGKGEVVKFMDVYQRSYCHPITEVFEISRRLIDRTNANFLVWPPCVEVQRCGGCCNDEGLECVPTQVQLRPVQVRKIEIVRKKPIFKKATVTLEDHNKCECRPKKD
With B4, in [11], the binding result is listed as “binds”.

B5: PVGS, yeast-displayed (designed binder)
chain: IAEPAMIAECHPIETLVDILQEYPDEIGYIFKPSCVPLMRCGGCCNNRNVQCRPTEESNITMQIMRIKPHRGQHIGEMSFLQHNKCRCETVAAGGGGSGGGGSGGGGSGGGGSEVVKFMDVYQRSYCKTRTEVFEISRRLIDATNANFLVWPPCVEVQRCSGCCNHEGLECVPTQVQLRPVQVRKIEFVRKKPIFKKATVTLEDHLACECRPKKD
With B5, the concentration for a half-maximal effect (EC50 (read off the curve)) in assay [12] is approximately 0.3 nM; in assay [13], approximately 1 nM. Besides, the Kd in [14] turned out to be 1.1 nM; in [15], 0.25 nM.
